US20190233507A1 (CORNELL UNIVERSITY, published 2019)

Biological target: β-galactosidase (UniProt P00722 2-1024 = β-galactosidase, limits assumed)
Test: ELISA, plate coated with 1 µg β-gal per well, anti-FLAG-HRP detection
Excerpt: FIGS. 1A-D illustrate ubiquibody expression and binding. FIG. 1A is a schematic depiction of pET28a constructs used to express ubiquibodies (“uAb”) in E. coli, which includes single chain Fv antibody fragment (“scFv”), GSGSG linker (“˜”), human C-terminus of Hsc70-interacting protein (“CHIP”) without the N-terminal TPR domain (“[…]”), a FLAG-tag (“F”) and a 6×His-tag (“H6”). FIG. 1B is a western blot of the soluble fractions isolated from BL21(DE3) E. coli cells expressing wild-type human CHIP, inactivated CHIPH260Q, CHIPΔTPR, scFv13R4, scFv13R4-uAb, scFv13-uAb and scFvD10-uAb. An equivalent amount of total protein was loaded in each lane and expression was assayed using anti-FLAG-HRP. FIG. 1C is a graph showing ELISA results where a plate was coated with 1 μg β-gal per well and incubated with 160 ng of purified protein per well. Samples were performed in triplicate and error bars represent the standard deviation of the mean. […]
Briefly, ELISAs were performed using a 96-well plate coated with antigen (β-gal, gpD or Hsp70) at a concentration of 10 μg/mL (1 μg of antigen per well) and incubated overnight at 4° C. […] The amount of bound anti-flag-HRP was determined by using SigmaFAST™ o-phenylenediamine dihydrochloride (OPD) tablets for detection of peroxidase activity at 492 nm.

Chain of β-galactosidase (P00722 2-1024 limits assumed): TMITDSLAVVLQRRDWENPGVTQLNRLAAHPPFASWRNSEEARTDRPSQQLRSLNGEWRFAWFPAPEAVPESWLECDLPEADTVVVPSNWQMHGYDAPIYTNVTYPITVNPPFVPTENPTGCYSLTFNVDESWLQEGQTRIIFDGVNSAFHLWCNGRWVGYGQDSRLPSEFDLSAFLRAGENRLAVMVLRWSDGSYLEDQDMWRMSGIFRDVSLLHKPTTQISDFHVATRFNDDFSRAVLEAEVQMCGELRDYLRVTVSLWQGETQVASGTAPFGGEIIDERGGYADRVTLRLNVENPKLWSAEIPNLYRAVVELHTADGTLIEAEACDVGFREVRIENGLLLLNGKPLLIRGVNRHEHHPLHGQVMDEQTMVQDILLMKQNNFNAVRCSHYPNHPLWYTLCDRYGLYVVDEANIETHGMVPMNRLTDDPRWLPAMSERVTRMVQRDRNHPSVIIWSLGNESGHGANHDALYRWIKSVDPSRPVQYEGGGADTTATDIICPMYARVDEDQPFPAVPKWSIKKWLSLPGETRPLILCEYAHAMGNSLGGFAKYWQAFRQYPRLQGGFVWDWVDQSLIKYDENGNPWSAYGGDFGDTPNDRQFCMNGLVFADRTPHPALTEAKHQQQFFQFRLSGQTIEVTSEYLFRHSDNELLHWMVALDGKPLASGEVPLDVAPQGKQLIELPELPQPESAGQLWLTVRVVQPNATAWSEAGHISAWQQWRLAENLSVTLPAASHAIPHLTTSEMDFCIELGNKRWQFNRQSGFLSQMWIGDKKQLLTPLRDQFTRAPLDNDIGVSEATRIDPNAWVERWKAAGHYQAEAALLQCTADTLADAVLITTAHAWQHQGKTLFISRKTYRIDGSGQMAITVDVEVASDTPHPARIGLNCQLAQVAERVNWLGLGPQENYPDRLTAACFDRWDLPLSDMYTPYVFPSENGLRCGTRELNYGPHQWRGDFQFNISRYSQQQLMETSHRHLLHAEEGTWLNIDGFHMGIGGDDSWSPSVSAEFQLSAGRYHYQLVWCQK

B1: CHIPΔTPR (Construct 3: hCHIPdTPR-FLAGtag-His6tag) (enzyme)
chain: MGRLNFGDDIPSALRIAKKKRWNSIEERRIHQESELHSYLSRLIAAERERELEECQRNHEGDEDDSHVRAQQACIEAKHDKYMADMDELFSQVDEKRKKRDIPDYLCGKISFELMREPCITPSGITYDRKDIEEHLQRVGHFDPVTRSPLTQEQLIPNLAMKEVIDAFISENGWVEDYVDGADYKDDDDKGHHHHHH
notes: Control protein, purified from E. coli
- binding result: no binding (tested: 160 ng of purified protein per well)
